Assay results as given in the supplement of paper PMC9170038.

What was measured:
MS2 coat protein [1] = test: apparent KD of MS2 coat protein; designed switch direction (-1 OFF switch, 1 ON switch): 1; higher = weaker reporter binding; conditions: Eterna round: R98
Method: (§1)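 RNA-MaP: designed FMN/MS2 RNA switches (84 nt design region) are transcribed on-chip within common flanks and titrated with SNAP-549-labelled MS2 coat protein (about 1-3000 nM) in 100 mM Tris pH 7.5, 80 mM KCl, 4 mM MgCl2, without or with 200 uM FMN. Median apparent KD per design; activation ratio = KD,OFF / KD,ON.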

MS2 coat protein [2] = test: apparent KD of MS2 coat protein; higher = weaker reporter binding; conditions: Eterna round: R101
Method: as §1

| Sequence | apparent KD of MS2 coat protein (MS2 coat protein [1]; input ligand: FMN 200 uM) [nM] | apparent KD of MS2 coat protein (MS2 coat protein [1]; input ligand: none) [nM] | apparent KD of MS2 coat protein (MS2 coat protein [2]; input ligand: FMN 200 uM) [nM] | apparent KD of MS2 coat protein (MS2 coat protein [2]; input ligand: none) [nM] |
| --- | --- | --- | --- | --- |
| ACAUGAGGAUCACCCAUGUAAUAACAUCGGAUUGUCGAAGGUGAGGAUAUCGUACUGGAAUAUUUCGAGAAGGCACAUUCUCCU [JR_SSNG3_Sub075] | 25.9 | 23.5 |  |  |
| GCACUCAAGUUAGGAUAUGGAUCGGAAAACGAUCCAGAAGGAACAUGGGAACAUGAGGAUCACCCAUGUUCCAGAAACGAGUGC [SameSame 1 - Jieux - Same State NG 1] | 188 | 733 |  |  |
| UCUUAAUUGUAGAAGGGUGACAUGAGGAUCACCCAUGUGCACGCGCGAUUUACGGCGCGCGUGCCACAGGAUAUACAGUUGGGU [Erinquve] (puzzle (switch architecture): Inverted Same State NG 2) |  |  | 12.1 | 41.1 |
| UAAUCUCGAGCCGACGGGAGAUUACAUGAGGAUCACCCAUGUGAGGAUAUCCCUGAGAAGACGGCGGAGAAGGCACUGGGUAGG [Diraoran] (puzzle (switch architecture): Exclusion NG 3) |  |  | 18.3 | 9.79 |
| ACACAUGAGGAUCACCCAUGUAGCCGGCGUCUGCGCCAGCCACAGGAUAUACGGCAACACAAGCCGUAGAAGGGUGAUAAACAC [Lalearledi] (puzzle (switch architecture): Same State NG 3) |  |  | 33.9 | 49.1 |
| AAUUAAAUCCUAGGAUAUGACUCCGAAACGGAGUCAGAAGGAGGAUCACCCUUUCAAAGCUCAGCGUCGAAAGACGCUGAGCAA [#SharedSequence - ExNG1-17] (puzzle (switch architecture): Exclusion NG 1) |  |  | 82.9 | 649 |
| CUUACUUUGUAGAAGGGUGACAUGAGGAUCACCCAUGUGCGUCGCCUGGAAGACCAGGGUACGCCACAGGAUAUACAAAGUAAG [Gesoesla] (puzzle (switch architecture): Inverted Same State NG 2) |  |  | 113 | 119 |
| CCUGCACCUCAAGGAUAUCCAGUCGUUUCGACUGGAGAAGGUGAGGAUCACCCAUCUAGCCUGACGUUUGUCAGGCAUGCAGGU [#AddUracilToBrourdLoops 5 - Jieux - Exclusion NG1] (puzzle (switch architecture): Exclusion NG 1) |  |  | 929 | 398 |
| GGGUACAUCGGAGGAUAUCAUGUAAAUACAUGAGGAUCACCCAUGUCGAUGGAGACAUGGGAGAUUGAGAAGGCCGAUGUACCG (puzzle (switch architecture): Same State NG 2) |  |  | 31.7 | 22.5 |
| CCGACGUUUCAGAAGGCACUCGCAUAAUGCGAGUGAGGAUAUGAGGAUCACCCAUAUCAUCGUCGGAGUCACCGAAACGGUGAC [#SharedSequence - IEx NG 3-2] (puzzle (switch architecture): Inverted Exclusion NG 1) |  |  | 12.4 | 7.89 |
| AUCAGCUCGUGAGGAUAUACGUCACUGCGUCAGCAGUGUGGUAAGAUCACAUGAGGAUCACCCAUGUAGAAGGCACGAGCUGAU [#FlippingAptamerGcClosingBasepair - Ex NG2 #82] (puzzle (switch architecture): Exclusion NG 2) |  |  | 539 | 23.6 |
| UUUAGUUUGUAGAAGGGUGACAUGAGGAUCACCCAUGUGCGUCGCCUGAAAGACCAGGGUACGCCACAGGAUAUACAAAGUAAA [Tiveedbila] (puzzle (switch architecture): Inverted Same State NG 2) |  |  | 76.8 | 39.6 |
| AGCUAUGACAUGAGGAUCACCCAUGUAUACAUGGGAUUGACGUAGGAUAUGCUGAAGAUUAAAGUGCAGAAGGACGGCUUAGCG [JR #DistanceFar #Hairpin #NP SSNG3 Sub065] (puzzle (switch architecture): Same State NG 3) |  |  | 512 | 1250 |
| AAAUGAUAUCAGAAGGCGUGGACGAAACGUCCACGAGGAUAUGAGGAUCACCCAUAUCAGGUCAGCCUGCAAAGCAGGCUGACC [#SharedSequence - IExNG1: 7-2] (puzzle (switch architecture): Inverted Exclusion NG 1) |  |  | 126 | 15.6 |
| GGCAGCACUUAGAAGGGAGUGCGAUAAUCGCACUCAGGAUAUGAGGAUCACCCAUAUCAAGCUGCCACUGAGGCAAAGCCUCAG [#SharedSequence - IEx NG 4-1] (puzzle (switch architecture): Inverted Exclusion NG 1) |  |  | 9.42 | 10.6 |
| GGGUACAUCGGAGGAUAUCAUGUAAAUACAUGAGGAUCACCCAUGUCGAUGGAGACAUCGGAGAUUGAGAAGGCCGAUGUACCG (puzzle (switch architecture): Same State NG 2) |  |  | 8.42 | 159 |
| CGCUAUUACAUGAGGAUCACCCAUGUAUAUAUGGGAUUUUCGUAGGAUAUGCAGAAGAUUAAAGUGCAGAAGGACGGAAUAGCG [JR #DistanceClose #Static #NP SSNG3 Sub066] (puzzle (switch architecture): Same State NG 3) |  |  | 31.9 | 46.9 |
| AAAGAUUUUUAAGGAUAUGACUCCGAAACGGAGUCAGAAGGUGAGGAUCACCCAUCUAGCUCAGGGUCGAAAGACCCUGAGCAA [#SharedSequence - ExNG1-15] (puzzle (switch architecture): Exclusion NG 1) |  |  | 78.3 | 43.6 |
| CACCUAAAUCCUAGAGGAUCACCCUAGGAUAUCACCGUCGAGGUGCCAUAAUGGCACCUCGACGGUGAGAAGGAGGGUGAAAUA [#SharedSequence - SLExNG3: 8] (puzzle (switch architecture): Small Loop Exclusion NG 3) |  |  | 6.49 | 5.08 |
| GAAAUAUAGUCAGGAUAUCAGGACAUGAGGAUCACCCAUGUACUGAAUGGGCUGGUGAAAAGAGAUGAGAAGGGACACACUAGA [EternaBot874] (puzzle (switch architecture): Exclusion NG 2) |  |  | 5.79 |  |
| GCAGCUAAUGCAGGAUAUCAGCACGUGUAGUGCUGAGAAGGGCACAUGAGGAUUCUGACUGUGAUCAAUUAAUAUUAAUGCUGC [salish99#hingeEx3_55-58_005] (puzzle (switch architecture): Exclusion NG 1) |  |  | 14.8 | 29.2 |
| AAAUAAUCCUCAGGAUAUGACUCCGAAACGGAGUCAGAAGGGAGGAUCACCCUCUUCAGCUCAGCGUCGAAAGACGCUGAGCAA [#SharedSequence ExNG1 - 23] (puzzle (switch architecture): Exclusion NG 1) |  |  | 11.9 | 863 |
| UCAUUUAUCACAGGAUAUAUUAGUAUACAGUUGUUUGGUUAUUACAUAUUAAUAGAAGGGUGAAACAUGAGGAUCACCCAUGUA [S-loop S-stateNG1 03] (puzzle (switch architecture): Small Loop Same State NG 1) |  |  | 113 | 367 |
| AAAGAUUUUUAAGGAUAUCAGUGGCAAAGCCACUGAGAAGGUGAGGAUCACCCACCUACGUGACGCUGGAAACAGCGUCACGAA [#SharedSequence ExNG1 - 25] (puzzle (switch architecture): Exclusion NG 1) |  |  | 12.7 | 13 |
| GCAGCUAAUGCAGGAUAUCAGCACGUGUAGUGCUGAGAAGGGCACAUGAGGAUCACCCAUGUGAUCAAUUAAUAUUAAUGCUGC [jl-eng1-3.00 #ENG1/11-B3_NECK] (puzzle (switch architecture): Exclusion NG 1) |  |  | 41.6 | 13 |
| AAUAAUCUUUAAGGAUAUGACUCCGAAACGGAGUCAGAAGGUGAGGAUCACCCACCUAGCUCAGGGUCGAAAGACCCUGAGCAA [#SharedSequence - ExNG1-9] (puzzle (switch architecture): Exclusion NG 1) |  |  | 10.6 | 9.5 |
| AGAGCUGCUCAGAAGGAGGAUCACCCUUUCGAAAGAAAUACGGAGGCUGAAAAGCCUCCGAGAUUUUAGGAUAUGAGCAGCUCA [#SharedSequence - IExNG2: 8] (puzzle (switch architecture): Inverted Exclusion NG 2) |  |  | 89.1 | 74.5 |
| CUGGUUGUCGUAGGAUAUGUAGGAUAUUCCUACAUGAGGAUCACCCAUGUUCGCAUGGAAGAAGGACAGAAGGACGAUGACCAG [salish99_SSNG2_013 #endbits investigation] (puzzle (switch architecture): Same State NG 2) |  |  | 9.22 | 1320 |
| UAAAUAAAUCCUAGAGGAUCACCCUAGGAUAUCACCGUCGAGGUGCCAUAAUGGCACCUCGACGGUGAGAAGGAGGAAAAUAAA [#SharedSequence - SLExNG3: 4] (puzzle (switch architecture): Small Loop Exclusion NG 3) |  |  | 6.64 | 6.46 |
| UAUAAUCUUUAAGGAUAUCAGUGGCUUUGCCACUGAGAAGGUGAGGAUCACCCACCUACGUGACCCUGGUUUCAGGGUCACGAU [#AddUracilToBrourdLoops 10 - Jieux - Exclusion NG1] (puzzle (switch architecture): Exclusion NG 1) |  |  | 11.6 | 10 |
